These results are taken from the supplement of paper PMC11780869.

The test system of the data set is Bacillus subtilis. Description: cleaved RNA product abundance (RNA/gDNA barcode ratio) relative to median wild-type variant (ratio to wild type); higher = more accumulation of the downstream cleavage product. The following applies: cleavage site: cggR-gapA (positions -7 to +36 mutated). The method in brief: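 Cleaved product abundance is expressed as the RNA:gDNA barcode ratio per construct, scaled to the median construct carrying the unmutated site. The constructs were barcoded, mutagenized RNase Y cleavage-site windows in truncated aprE or tetM reporter mRNAs integrated into the B. subtilis chromosome. Cultures grew in LB at 37°C from OD600 0.0003 to 0.3 before cleaved RNA was gel-selected and barcode-sequenced.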

Where [1] appears, read: experiment (reporter, strain, medium): exp 2b: truncated aprE reporter, strain BJT200.
The mark [2] stands for this setting: experiment (reporter, strain, medium): exp 4a: truncated aprE reporter, strain BJT201 with 2% xylose (RNase J1 expressed).

Consider “ACAGACGAAGGAGCCGCAAAGAAGTTAATAAGGGATGAATAATACCTCAATATAAATATCTCTCACTTATTTAAA”, for which the “cleaved RNA product abundance” value under setting [1] was 0.0994 and the “cleaved RNA product abundance” value under setting [2] stood at 0.144.

Take “ACAGACGAAGGAGCCGCAAAGAAGTTAATAAGGGATGAATAATCACTCAATATAAATATCTCTCACTTATTTAAA”: the “cleaved RNA product abundance” value under setting [1] is 0.112 and the “cleaved RNA product abundance” value under setting [2] turned out to be 0.109.

Regarding “ACAGACGAAGGAGCCGCAAAGAAGTTAATAAGGGATGAATAATCCATCAATATAAATATCTCTCACTTATTTAAA”, the “cleaved RNA product abundance” value runs as follows: under setting [1], 0.166; under setting [2], 0.224.

Consider “ACAGACGAAGGAGCCGCAAAGAAGTTAATAAGGGATGAATAATCCCACAATATAAATATCTCTCACTTATTTAAA”, for which the “cleaved RNA product abundance” value under setting [1] amounted to 0.17 and the “cleaved RNA product abundance” value under setting [2] was 0.253.

As for “ACAGACGAAGGAGCCGCAAAGAAGTTAATAAGGGATGAATAATCCCGCAATATAAATATCTCTCACTTATTTAAA”, the “cleaved RNA product abundance” value under setting [1] was found to be 0.0984.

With “ACAGACGAAGGAGCCGCAAAGAAGTTAATAAGGGATGAATAATCCCTAAATATAAATATCTCTCACTTATTTAAA”, the “cleaved RNA product abundance” value under setting [2] worked out at 0.306.

For the sequence “ACAGACGAAGGAGCCGCAAAGAAGTTAATAAGGGATGAATAATCCCTCAAAATAAATATCTCTCACTTATTTAAA”, the “cleaved RNA product abundance” value under setting [2] was 0.25.

As to “ACAGACGAAGGAGCCGCAAAGAAGTTAATAAGGGATGAATAATCCCTCAACATAAATATCTCTCACTTATTTAAA”, under setting [2], the “cleaved RNA product abundance” value stood at 0.342.

On to “ACAGACGAAGGAGCCGCAAAGAAGTTAATAAGGGATGAATAATCCCTCAATACAAATATCTCTCACTTATTTAAA”, for which the “cleaved RNA product abundance” value under setting [1] is 0.0847.

As for “ACAGACGAAGGAGCCGCAAAGAAGTTAATAAGGGATGAATAATCCCTCAATATAAAAATCTCTCACTTATTTAAA”, the “cleaved RNA product abundance” value under setting [2] came out at 0.278.

As to “ACAGACGAAGGAGCCGCAAAGAAGTTAATAAGGGATGAATAATCCCTCAATATAAACATCTCTCACTTATTTAAA”, under setting [2], the “cleaved RNA product abundance” value turned out to be 0.338.

As for “ACAGACGAAGGAGCCGCAAAGAAGTTAATAAGGGATGAATAATCCCTCAATATAAAGATCTCTCACTTATTTAAA”, the “cleaved RNA product abundance” value under setting [1] was 0.182.

Consider “ACAGACGAAGGAGCCGCAAAGAAGTTAATAAGGGATGAATAATCCCTCAATATAAATACCTCTCACTTATTTAAA”, for which the “cleaved RNA product abundance” value under setting [2] was determined as 0.201.

In the case of “ACAGACGAAGGAGCCGCAAAGAAGTTAATAAGGGATGAATAATCCCTCAATATAAATAGCTCTCACTTATTTAAA”, under setting [2], the “cleaved RNA product abundance” value worked out at 0.293.

On to “ACAGACGAAGGAGCCGCAAAGAAGTTAATAAGGGATGAATAATCCCTCAATATAAATATCTCTCACTTATTTAAA”, for which the “cleaved RNA product abundance” value runs as follows: under setting [1], 0.264; under setting [2], 0.349; (experiment (reporter, strain, medium): exp 6: tetM reporter, strain 168) 0.555.

As to “ACAGACGAAGGAGCCGCAAAGAAGTTAATAAGGGATGAATAATCCCTCAATATAAATCTCTCTCACTTATTTAAA”, the “cleaved RNA product abundance” value under setting [2] turned out to be 0.218.

For “ACAGACGAAGGAGCCGCAAAGAAGTTAATAAGGGATGAATAATCCCTCAATATAAATGTCTCTCACTTATTTAAA”, the “cleaved RNA product abundance” value under setting [2] amounted to 0.303.

As for “ACAGACGAAGGAGCCGCAAAGAAGTTAATAAGGGATGAATAATCCCTCAATATACATATCTCTCACTTATTTAAA”, under setting [2], the “cleaved RNA product abundance” value came to 0.313.

Regarding “ACAGACGAAGGAGCCGCAAAGAAGTTAATAAGGGATGAATAATCCCTCACTATAAATATCTCTCACTTATTTAAA”, the “cleaved RNA product abundance” value under setting [2] stood at 0.263.

With “ACAGACGAAGGAGCCGCAAAGAAGTTAATAAGGGATGAATAATCCCTCATTATAAATATCTCTCACTTATTTAAA”, under setting [2], the “cleaved RNA product abundance” value was 0.794.

Take “ACAGACGAAGGAGCCGCAAAGAAGTTAATAAGGGATGAATAATCCCTCTATATAAATATCTCTCACTTATTTAAA”: under setting [2], the “cleaved RNA product abundance” value was 0.39.

Take “ACAGACGAAGGAGCCGCAAAGAAGTTAATAAGGGATGAATAATCCCTGAATATAAATATCTCTCACTTATTTAAA”: the “cleaved RNA product abundance” value under setting [2] is 0.533.

Regarding “ACAGACGAAGGAGCCGCAAAGAAGTTAATAAGGGATGAATAATCCCTTAATATAAATATCTCTCACTTATTTAAA”, the “cleaved RNA product abundance” value is, setting by setting: under setting [1], 0.572; under setting [2], 0.519.

As for “ACAGACGAAGGAGCCGCAAAGAAGTTAATAAGGGATGAATAATCCGTCAATATAAATATCTCTCACTTATTTAAA”, under setting [1], the “cleaved RNA product abundance” value turned out to be 0.177.

With “ACAGACGAAGGAGCCGCAAAGAAGTTAATAAGGGATGAATAATCCTTCAATATAAATATCTCTCACTTATTTAAA”, the “cleaved RNA product abundance” value reads like this: under setting [1], 0.185; under setting [2], 0.237.

On to “ACAGACGAAGGAGCCGCAAAGAAGTTAATAAGGGATGAATAATCGCTCAATATAAATATCTCTCACTTATTTAAA”, for which, under setting [2], the “cleaved RNA product abundance” value was found to be 0.0788.

For “ACAGACGAAGGAGCCGCAAAGAAGTTAATAAGGGATGAATAATCTCTCAATATAAATATCTCTCACTTATTTAAA”, the “cleaved RNA product abundance” value was determined as 0.195 under setting [1] and 0.292 under setting [2].

For “ACAGACGAAGGAGCCGCAAAGAAGTTAATAAGGGATGAATAATGCCTCAATATAAATATCTCTCACTTATTTAAA”, the “cleaved RNA product abundance” value runs as follows: under setting [1], 0.121; under setting [2], 0.124.

In the case of “ACAGACGAAGGAGCCGCAAAGAAGTTAATAAGGGATGAATAATTCCTCAATATAAATATCTCTCACTTATTTAAA”, the “cleaved RNA product abundance” value was 0.178 under setting [1] and 0.198 under setting [2].

As for “ACAGACGAAGGAGCCGCAAAGAAGTTAATAAGGGATGAATAGTCCCTCAATATAAATATCTCTCACTTATTTAAA”, under setting [2], the “cleaved RNA product abundance” value amounted to 0.263.

As to “ACAGACGAAGGAGCCGCAAAGAAGTTAATAAGGGATGAATATTCCCTCAATATAAATATCTCTCACTTATTTAAA”, the “cleaved RNA product abundance” value turned out to be 0.246 under setting [1] and 0.279 under setting [2].

“ACAGACGAAGGAGCCGCAAAGAAGTTAATAAGGGATGAATCATCCCTCAATATAAATATCTCTCACTTATTTAAA”: the “cleaved RNA product abundance” value reads like this: under setting [1], 0.188; under setting [2], 0.314.

Turning to “ACAGACGAAGGAGCCGCAAAGAAGTTAATAAGGGATGAATGATCCCTCAATATAAATATCTCTCACTTATTTAAA”, under setting [2], the “cleaved RNA product abundance” value came out at 0.284.

For “ACAGACGAAGGAGCCGCAAAGAAGTTAATAAGGGATGAATTATCCCTCAATATAAATATCTCTCACTTATTTAAA”, the “cleaved RNA product abundance” value under setting [2] was 0.339.

Consider “ACAGACGAAGGAGCCGCAAAGAAGTTAATAAGGGATGACTAATCCCTCAATATAAATATCTCTCACTTATTTAAA”, for which, under setting [2], the “cleaved RNA product abundance” value came to 0.308.

For the sequence “ACAGACGAAGGAGCCGCAAAGAAGTTAATAAGGGATGCATAATCCCTCAATATAAATATCTCTCACTTATTTAAA”, the “cleaved RNA product abundance” value under setting [2] came out at 0.301.

For “ACAGACGAAGGAGCCGCAAAGAAGTTAATAAGGGATGTATAATCCCTCAATATAAATATCTCTCACTTATTTAAA”, the “cleaved RNA product abundance” value under setting [2] stood at 0.322.

On to “ACAGACGAAGGAGCCGCAAAGAAGTTAATAAGGGATTAATAATCCCTCAATATAAATATCTCTCACTTATTTAAA”, for which the “cleaved RNA product abundance” value under setting [1] is 0.218 and the “cleaved RNA product abundance” value under setting [2] turned out to be 0.313.

Turning to “ACAGACGAAGGAGCCGCAAAGAAGTTAATAAGGTATGAATAATCCCTCAATATAAATATCTCTCACTTATTTAAA”, the “cleaved RNA product abundance” value under setting [1] was 0.0951 and the “cleaved RNA product abundance” value under setting [2] amounted to 0.15.

Consider “ACAGACGAAGGAGCCGCAAAGAAGTTAATAAGTGATGAATAATCCCTCAATATAAATATCTCTCACTTATTTAAA”, for which the “cleaved RNA product abundance” value is, setting by setting: under setting [1], 0.167; under setting [2], 0.129.

“ACAGACGAAGGAGCCGCAAAGAAGTTAATAATGGATGAATAATCCCTCAATATAAATATCTCTCACTTATTTAAA”: the “cleaved RNA product abundance” value is, setting by setting: under setting [1], 0.104; under setting [2], 0.137.

Turning to “ACAGACGAAGGAGCCGCAAAGAAGTTAATAGGGGATGAATAATCCCTCAATATAAATATCTCTCACTTATTTAAA”, the “cleaved RNA product abundance” value under setting [2] stood at 0.292.

Take “ACAGACGAAGGAGCCGCAAAGAAGTTACAAAGGGATGAATAATCCCACAATATAAATATCTCTCACTTATTTAAA”: the “cleaved RNA product abundance” value under setting [2] came to 0.157.

Regarding “ACAGACGAAGGAGCCGCAAAGAAGTTACAAAGGGATGAATAATCCCTCAATATAAATATCTCTCACTTATTTAAA”, the “cleaved RNA product abundance” value under setting [2] is 0.257.

In the case of “ACAGACGAAGGAGCCGCAAAGAAGTTACTAAAGGATGAATAATCCCTCAATATAAATATCTCTCACTTATTTAAA”, the “cleaved RNA product abundance” value is, setting by setting: under setting [1], 0.0999; under setting [2], 0.171.

With “ACAGACGAAGGAGCCGCAAAGAAGTTACTAACGGATGAATAATCCCTCAATATAAATATCTCTCACTTATTTAAA”, the “cleaved RNA product abundance” value under setting [1] is 0.0838 and the “cleaved RNA product abundance” value under setting [2] amounted to 0.162.

Turning to “ACAGACGAAGGAGCCGCAAAGAAGTTACTAAGGAATGAATAATCCCTCAATATAAATATCTCTCACTTATTTAAA”, the “cleaved RNA product abundance” value came to 0.0952 under setting [1] and 0.143 under setting [2].

As for “ACAGACGAAGGAGCCGCAAAGAAGTTACTAAGGCATGAATAATCCCTCAATATAAATATCTCTCACTTATTTAAA”, the “cleaved RNA product abundance” value under setting [2] came to 0.112.

“ACAGACGAAGGAGCCGCAAAGAAGTTACTAAGGGAAGAATAATCCCTCAATATAAATATCTCTCACTTATTTAAA”: under setting [2], the “cleaved RNA product abundance” value is 0.138.

As for “ACAGACGAAGGAGCCGCAAAGAAGTTACTAAGGGACGAATAATCCCTCAATATAAATATCTCTCACTTATTTAAA”, the “cleaved RNA product abundance” value under setting [1] was determined as 0.131.

“ACAGACGAAGGAGCCGCAAAGAAGTTACTAAGGGATAAATAATCCCTCAATATAAATATCTCTCACTTATTTAAA”: the “cleaved RNA product abundance” value reads like this: under setting [1], 0.206; under setting [2], 0.224.

In the case of “ACAGACGAAGGAGCCGCAAAGAAGTTACTAAGGGATCAATAATCCCTCAATATAAATATCTCTCACTTATTTAAA”, under setting [2], the “cleaved RNA product abundance” value is 0.208.

Turning to “ACAGACGAAGGAGCCGCAAAGAAGTTACTAAGGGATGAACAATCCCTCAATATAAATATCTCTCACTTATTTAAA”, under setting [2], the “cleaved RNA product abundance” value is 0.266.
